Two proteins from article doi:10.1101/370387 (bioRxiv, 2018) can be followed below.

Data set [1] concerns the molecule itself. As to the kind of experiment: cryo-EM structure.
Data set [2] deals with the molecule itself. As to the kind of experiment: cryo-EM structure. This is another data set of the same source.

Residue numbers refer to the chain shown, from its start. Read-outs that look alike come from different tables or passages of the source. No end group written: not given here.

B1: phospholamban Asn27-Ala mutant (canine PLN sequence), super-inhibitory pentameric form (natural protein, UniProt P61012 1-52, looked up)
chain: MDKVQYLTRSAIRRASTIEMPQQARQALQNLFINFCLILICLLLICIIVMLL
modifications: cysteine pairing not given here; also: pentameric form
B1: the stoichiometry N (commonly the number of molecules, sites or subunits per partner or assembly) in data set [1] was determined as 4.

B2: phospholamban Lys27-Ala mutant (human PLN sequence), super-inhibitory pentameric form (natural protein, UniProt P26678 1-52, looked up)
chain: B1 chain with D2E
modifications: cysteine pairing not given here; also: pentameric form
Take B2: in data set [2], the “stoichiometry N” value turned out to be 5.
